Measurements from the RNAGym collection of RNA variant scans (doi:10.1021/acssynbio.7b00057).

B1: Pistol ribozyme (parent)
chain: GGGUCGUUGUUCCAUAAUCGCGUGGAUAUGGCACGCAAGUUUCUACCGGGCACCGUAAAUGUCCGACUGGAGCCGUUCGGGCGGCUAUAAACAGACCUCAGGCCCGAAGCGUGGCGGCACCUGCCGCCGGUGGUAAAAAAGAUCGGAAGAGCACACGUCU

Variants of: B1
Assay: aptazyme ON/OFF ratio, guanine; higher = stronger switching; co-transcriptional cleavage with and without guanine

Row | Variant | aptazyme ON/OFF ratio
1 | GGGUCGAUCAGCCAUAAUCGCGUGGAUAUGGCACGCAAGUUUCUACCGGGCACCGUAAAUGUCCGACUGGAGCCGUUCGGGCGGCUAUAAACAGACCUCAGGCCCGAAGCGUGGCGGCACCUGCCGCCGGUGGUAAAAAAGAUCGGAAGAGCACACGUCU [U7A G9C U10A U11G] | 1.09
2 | GGGUCGAUCAGGGAUAAUCGCGUGGAUAUGGCACGCAAGUUUCUACCGGGCACCGUAAAUGUCCGACUGGAGCCGUUCGGGCGGCUAUAAACAGACCUCAGGCCCGAAGCGUGGCGGCACCUGCCGCCGGUGGUAAAAAAGAUCGGAAGAGCACACGUCU [U7A G9C U10A U11G C12G C13G] | 1.12
3 | GGGUCGAUCAGGAAUAAUCGCGUGGAUAUGGCACGCAAGUUUCUACCGGGCACCGUAAAUGUCCGACUGGAGCCGUUCGGGCGGCUAUAAACAGACCUCAGGCCCGAAGCGUGGCGGCACCUGCCGCCGGUGGUAAAAAAGAUCGGAAGAGCACACGUCU [U7A G9C U10A U11G C12G C13A] | 1.06
4 | GGGUCGAUCAGGUAUAAUCGCGUGGAUAUGGCACGCAAGUUUCUACCGGGCACCGUAAAUGUCCGACUGGAGCCGUUCGGGCGGCUAUAAACAGACCUCAGGCCCGAAGCGUGGCGGCACCUGCCGCCGGUGGUAAAAAAGAUCGGAAGAGCACACGUCU [U7A G9C U10A U11G C12G C13U] | 1.18
5 | GGGUCGAUCCUGUAUAAUCGCGUGGAUAUGGCACGCAAGUUUCUACCGGGCACCGUAAAUGUCCGACUGGAGCCGUUCGGGCGGCUAUAAACAGACCUCAGGCCCGAAGCGUGGCGGCACCUGCCGCCGGUGGUAAAAAAGAUCGGAAGAGCACACGUCU [U7A G9C U10C C12G C13U] | 1.05
6 | GGGUCGAUCCUGAAUAAUCGCGUGGAUAUGGCACGCAAGUUUCUACCGGGCACCGUAAAUGUCCGACUGGAGCCGUUCGGGCGGCUAUAAACAGACCUCAGGCCCGAAGCGUGGCGGCACCUGCCGCCGGUGGUAAAAAAGAUCGGAAGAGCACACGUCU [U7A G9C U10C C12G C13A] | 1.03
7 | GGGUCGAUCCUGGAUAAUCGCGUGGAUAUGGCACGCAAGUUUCUACCGGGCACCGUAAAUGUCCGACUGGAGCCGUUCGGGCGGCUAUAAACAGACCUCAGGCCCGAAGCGUGGCGGCACCUGCCGCCGGUGGUAAAAAAGAUCGGAAGAGCACACGUCU [U7A G9C U10C C12G C13G] | 1.07
8 | GGGUCGAUCCUCGAUAAUCGCGUGGAUAUGGCACGCAAGUUUCUACCGGGCACCGUAAAUGUCCGACUGGAGCCGUUCGGGCGGCUAUAAACAGACCUCAGGCCCGAAGCGUGGCGGCACCUGCCGCCGGUGGUAAAAAAGAUCGGAAGAGCACACGUCU [U7A G9C U10C C13G] | 1.05
9 | GGGUCGAUCCUCAAUAAUCGCGUGGAUAUGGCACGCAAGUUUCUACCGGGCACCGUAAAUGUCCGACUGGAGCCGUUCGGGCGGCUAUAAACAGACCUCAGGCCCGAAGCGUGGCGGCACCUGCCGCCGGUGGUAAAAAAGAUCGGAAGAGCACACGUCU [U7A G9C U10C C13A] | 1.01
10 | GGGUCGAUCCUCUAUAAUCGCGUGGAUAUGGCACGCAAGUUUCUACCGGGCACCGUAAAUGUCCGACUGGAGCCGUUCGGGCGGCUAUAAACAGACCUCAGGCCCGAAGCGUGGCGGCACCUGCCGCCGGUGGUAAAAAAGAUCGGAAGAGCACACGUCU [U7A G9C U10C C13U] | 1.22
11 | GGGUCGAUCCUUGAUAAUCGCGUGGAUAUGGCACGCAAGUUUCUACCGGGCACCGUAAAUGUCCGACUGGAGCCGUUCGGGCGGCUAUAAACAGACCUCAGGCCCGAAGCGUGGCGGCACCUGCCGCCGGUGGUAAAAAAGAUCGGAAGAGCACACGUCU [U7A G9C U10C C12U C13G] | 1.01
12 | GGGUCGAUCCUUAAUAAUCGCGUGGAUAUGGCACGCAAGUUUCUACCGGGCACCGUAAAUGUCCGACUGGAGCCGUUCGGGCGGCUAUAAACAGACCUCAGGCCCGAAGCGUGGCGGCACCUGCCGCCGGUGGUAAAAAAGAUCGGAAGAGCACACGUCU [U7A G9C U10C C12U C13A] | 1.04
13 | GGGUCGAUCCUUUAUAAUCGCGUGGAUAUGGCACGCAAGUUUCUACCGGGCACCGUAAAUGUCCGACUGGAGCCGUUCGGGCGGCUAUAAACAGACCUCAGGCCCGAAGCGUGGCGGCACCUGCCGCCGGUGGUAAAAAAGAUCGGAAGAGCACACGUCU [U7A G9C U10C C12U C13U] | 1.06
14 | GGGUCGAUCCUCCAUAAUCGCGUGGAUAUGGCACGCAAGUUUCUACCGGGCACCGUAAAUGUCCGACUGGAGCCGUUCGGGCGGCUAUAAACAGACCUCAGGCCCGAAGCGUGGCGGCACCUGCCGCCGGUGGUAAAAAAGAUCGGAAGAGCACACGUCU [U7A G9C U10C] | 2.21
15 | GGGUCGAUCCACCAUAAUCGCGUGGAUAUGGCACGCAAGUUUCUACCGGGCACCGUAAAUGUCCGACUGGAGCCGUUCGGGCGGCUAUAAACAGACCUCAGGCCCGAAGCGUGGCGGCACCUGCCGCCGGUGGUAAAAAAGAUCGGAAGAGCACACGUCU [U7A G9C U10C U11A] | 1.07
16 | GGGUCGAUCAGGCAUAAUCGCGUGGAUAUGGCACGCAAGUUUCUACCGGGCACCGUAAAUGUCCGACUGGAGCCGUUCGGGCGGCUAUAAACAGACCUCAGGCCCGAAGCGUGGCGGCACCUGCCGCCGGUGGUAAAAAAGAUCGGAAGAGCACACGUCU [U7A G9C U10A U11G C12G] | 1.09
17 | GGGUCGAUCAGUCAUAAUCGCGUGGAUAUGGCACGCAAGUUUCUACCGGGCACCGUAAAUGUCCGACUGGAGCCGUUCGGGCGGCUAUAAACAGACCUCAGGCCCGAAGCGUGGCGGCACCUGCCGCCGGUGGUAAAAAAGAUCGGAAGAGCACACGUCU [U7A G9C U10A U11G C12U] | 1.07
18 | GGGUCGAUCAGACAUAAUCGCGUGGAUAUGGCACGCAAGUUUCUACCGGGCACCGUAAAUGUCCGACUGGAGCCGUUCGGGCGGCUAUAAACAGACCUCAGGCCCGAAGCGUGGCGGCACCUGCCGCCGGUGGUAAAAAAGAUCGGAAGAGCACACGUCU [U7A G9C U10A U11G C12A] | 1.04
